Experimental data from PMC11022072 (2024).

Columns and labels:
Test in all cases: BLI
[1] = molecular target: FL LbpB ΔCaHD
[2] = molecular target: LbpB C-lobe
[3] = molecular target: LbpB C-lobe ΔCaHD

B1: bovine lactoferrin (Lf) (natural protein)
chain: APRKNVRWCTISQPEWFKCRRWQWRMKKLGAPSITCVRRAFALECIRAIAEKKADAVTLDGGMVFEAGRDPYKLRPVAAEIYGTKESPQTHYYAVAVVKKGSNFQLDQLQGRKSCHTGLGRSAGWIIPMGILRPYLSWTESLEPLQGAVAKFFSASCVPCIDRQAYPNLCQLCKGEGENQCACSSREPYFGYSGAFKCLQDGAGDVAFVKETTVFENLPEKADRDQYELLCLNNSRAPVDAFKECHLAQVPSHAVVARSVDGKEDLIWKLLSKAQEKFGKNKSRSFQLFGSPPGQRDLLFKDSALGFLRIPSKVDSALYLGSRYLTTLKNLRETAEEVKARYTRVVWCAVGPEEQKKCQQWSQQSGQNVTCATASTTDDCIVLVLKGEADALNLDGGYIYTAGKCGLVPVLAENRKSSKHSSLDCVLRPTEGYLAVAVVKKANEGLTWNSLKDKKSCHTAVDRTAGWNIPMGLIVNQTGSCAFDEFFSQSCAPGADPKSRLCALCAGDDQGLDKCVPNSKEKYYGYTGAFRCLAEDVGDVAFVKNDTVWENTNGESTADWAKNLNREDFRLLCLDGTRKPVTEAQSCHLAVAPNHAVVSRSDRAAHVKQVLLHQQALFGKNGKNCPDKFCLFKSETKNLLFNDNTECLAKLGGRPTYEEYLGTEYVTAIANLKKCSTSPLLEACAFLTR
[1]
  Kd: 1280 nM
[2]
  Kd: 200 nM
[3]
  Kd: 2900 nM
